According to the supplement of paper PMC9170038:

Test system: MS2 coat protein
Test: apparent KD of MS2 coat protein; designed switch direction (-1 OFF switch, 1 ON switch): 1; higher = weaker reporter binding
Summary of the method: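 Stalled E. coli RNA polymerase transcribed designed RNA switches on Illumina chips, which were then titrated with SNAP-549-labelled MS2 coat protein, doubling from 0.7 or 1.5 nM to 3 µM. Steps lasted from 0.8–1.5 h at the lowest concentration to 10–20 min at the highest. The apparent KD is each design's median over clusters of curve-fitted normalised fluorescence.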

[1] = Eterna round: R95, input ligand: FMN 200 uM
[2] = Eterna round: R95, input ligand: microRNA oligo, concentration not stated
[3] = Eterna round: R95, input ligand: none
[4] = input ligand: microRNA oligo, concentration not stated

Sequence	apparent KD of MS2 coat protein [1] [nM]	apparent KD of MS2 coat protein [2] [nM]	apparent KD of MS2 coat protein [3] [nM]	apparent KD of MS2 coat protein (input ligand: FMN 200 uM) [nM]	apparent KD of MS2 coat protein [4] [nM]	apparent KD of MS2 coat protein (input ligand: none) [nM]
GUAGAUGUAGAGGAGGAUAUUCAAUGAGGAACAUGAGGAUCACCCAUGUAAGAGAGAGAUGAUGAGAAGAAGGCUUAGAGAGAUG [Altered State 2-2 - Jieux - Same State 2] (puzzle: Same State 2)	32.3	31.3	46	–	–	–
GUAGCAUACCGAGGAUAUUCAUACAUGAGGAUCACCCAUGUUAUUAUAGGACGAUUACGUCCUUGGGAGAAGGCGGAAUGCUAC [Xeonanis - 20 Mod29] (Eterna round: R96, puzzle: Same State NG 2)	–	–	–	10.2	11.8	15.1
GUAGCAUACCGAGGAUAUUCAUAUUAACAUGAGGAUCACCCAUGUUUUUAGGCCAAAAGGCCUUGGGAGAAGGCGGAAUGCUAC [Xeonanis - 20 Mod6] (Eterna round: R96, puzzle: Same State NG 2)	–	–	–	11.4	12.8	16.1
GUAGCAUACCGAGGAUAUUCAUAUUACAUGAGGAUCACCCAUGUUAAAGAUAGGCGAAAGCCUUGGGAGAAGGCGGAAUGCUAC [Xeonanis - 20 Mod68] (Eterna round: R96, puzzle: Same State NG 2)	–	–	–	8.61	10.7	11.3
GUAGCAUACCGAGGAUAUUCAUAUUACAUGAGGAUCACCCAUGUUAUUUAGGCCAAAAGGCCUUGGGAGAAGGCGGAAUGCUAC [Xeonanis - 20 Mod8] (Eterna round: R96, puzzle: Same State NG 2)	–	–	–	9.39	9.17	18.2
GUAGCAUACCGAGGAUAUUCAUUACAUGAGGAUCACCCAUGUUAGGCCAGCAUUAGCUGGCCUUGGGAGAAGGCGGAAUGCUAC [Xeonanis - 20 Mod53] (Eterna round: R96, puzzle: Same State NG 2)	–	–	–	14	29.1	37.8
GUAGCAUACCGAGGAUAUUCAUUACAUGAGGAUCACCCAUGUUUAAAUAAUAGGCGAAAGCCUUGGGAGAAGGCGGAAUGCUAC [Xeonanis - 20 Mod71] (Eterna round: R96, puzzle: Same State NG 2)	–	–	–	10.9	10.1	14
GUAGCAUGCAGGCAGGAUAUUCAUAUUAAAACAUGAGGAUCACCCAUGUAGGCCAAAAGGCCUUGGGAGAAGGGCCACAUGCUAC [Xeonanis - 19] (Eterna round: R96, puzzle: Same State 2)	–	–	–	35.7	337	424
GUAGCAUGCAGGCAGGAUAUUCAUAUUAAAACAUGAGGAUCACCCAUGUAGGCCAAAAGGCCUUGGGAGAAGGGCCACAUGCUAC [Xeonanis - 19] (puzzle: Same State 2)	34.9	488	842	–	–	–
GUCCAAAACACAGGAUAUCCCGGUCAAAAUCCGGGAGAAGGGUGGCCACAUGAGGAUCACCCAUGUGACGUGCGAGAGGCACGA [Diessorire] (Eterna round: R96, puzzle: Same State NG 1)	–	–	–	118	318	540
GUCGGUCUGUCGUGCUGUGGUGAUAGUUAACAUGAGGAUCACCCAUGUUGCUUUCGGGUCGUUGGGAGUUUUUUUCG [Modxample 121 - Jieux - Sensor for bsa-mir-208a] (Eterna round: R96, puzzle: Sensor for hsa-mir-208a)	–	–	–	63.1	43.9	64
GUGGAGGGUUGAGGAUAUUGAUUGCAUAUGUUUAACAUGAGGAUCACCCAUGUGGGUUGCGGUUUCGAGAAGGUAGGUUGCUGG [salish99_SSNG2_r04_042] (Eterna round: R96, puzzle: Same State NG 2)	–	–	–	80.8	59.4	72.2
GUGGUCAGACAUGAGGAUCACCCAUGUGGAAUAAAUAACACACAGGAUAUGGAAUAUAAAAUAUACCAGAAGGGUGGAUUGGUG (Eterna round: R96, puzzle: Same State NG 3)	–	–	–	157	226	326
GUGGUCAGACAUGAGGAUCACCCAUGUGGAAUAAAUAACGGACAGGAUAUAAAAUAUAGGAUAUAUUAGAAGGGUUGAUUGGUG (Eterna round: R96, puzzle: Same State NG 3)	–	–	–	43.7	38.1	68.4
GUGGUCAGACAUGAGGAUCACCCAUGUGGAAUAAAUAACGGACAGGAUAUAGAAUAUAGGAUAUACUAGAAGGGUUGAUUGGUG (Eterna round: R96, puzzle: Same State NG 3)	–	–	–	–	45.1	–
GUGGUCAGACAUGAGGAUCACCCAUGUGGAAUAAAUAACGUACAGGAUAUGGAAUAUAGGAUAUACUAGAAGGGUAGAUUGGUG (Eterna round: R96, puzzle: Same State NG 3)	–	–	–	110	75.3	87.7
GUGGUCAGACAUGAGGAUCACCCAUGUGGAAUAAAUAAGGAGAAGGAUAUGCAAUAUAGGAUAUAGUAGAAGGUCUGGUUGGUG (Eterna round: R96, puzzle: Same State NG 3)	–	–	–	–	63.4	–
GUGGUCAGACAUGAGGAUCACCCAUGUGGAAUAAAUAAGGAGAAGGAUAUUGAAUAUAGGAUAUACAAGAAGGUCUGGUUGGUG (Eterna round: R96, puzzle: Same State NG 3)	–	–	–	–	71.3	–
GUGGUCAGACAUGAGGAUCACCCAUGUGGAAUAAAUAAGGAUUAGGAUAUGGAAUAUAGGAUAUACCAGAAGGAAUGGUUGGUG (Eterna round: R96, puzzle: Same State NG 3)	–	–	–	–	75.8	–
GUGGUCAGACAUGAGGAUCACCCAUGUGGAAUAAAUAAGGGUUAGGAUAUGCAAUAUAGGAUAUAGCAGAAGGGAUGGUUGGUG (Eterna round: R96, puzzle: Same State NG 3)	–	–	–	–	84.9	–
GUGGUCAGACAUGAGGAUCACCCAUGUGGAAUAAAUAAGGUUUAGGAUAUGGAAUAUAGGAUAUACCAGAAGGAAAGGUUGGUG (Eterna round: R96, puzzle: Same State NG 3)	–	–	–	176	75.4	133
GUGGUGGGUUGAGGAUAUUGGUUGUUGUUGUUCUACAUGAGGAUCACCCAUGUGGGUUGUGGUUUUGAGAAGGUUGGUUGCUGG [salish99_SSNG2_r04_049] (Eterna round: R96, puzzle: Same State NG 2)	–	–	–	45.2	31.3	42.8
GUUAAACAUGAGGAUCACCCAUGUCAUCUAAGUCGAGGAUAUGGGAAUUAAUUAAUUAAACCAGAAGGCGAAAAUG [Mat - Same State 1 - D96] (puzzle: Same State 1)	39	174	126	–	–	–
GUUACAUGAGGAUCACCCAUGUAUGUGUGGGAGUAAGUGUCUUAGGAUAUCUAGUAUUAAAUUUAAGAGAAGGAAGAUUGUUGU [JMF's solution 57] (Eterna round: R96, puzzle: Same State NG 3)	–	–	–	140	78.9	110
GUUACAUGAGGAUCACCCAUGUAUGUGUGGGAGUAAGUGUCUUAGGAUAUCUAUGAUUUAAAUUAAGAGAAGGAAGAUUGUUGU [JMF's solution 11] (Eterna round: R96, puzzle: Same State NG 3)	–	–	–	–	84.2	–
GUUACAUGAGGAUCACCCAUGUAUGUGUGGGAGUAAGUGUCUUAGGAUAUCUAUUAUUUAAUUUGAGAGAAGGAAGAUUGUUGU [JMF's solution 28] (Eterna round: R96, puzzle: Same State NG 3)	–	–	–	107	97.7	107
GUUAUACAUGAGGAUCACCCAUGUCAAUGUAGUCGAGGAUAUGGGUUGCUAUGAGGCGUACUAGAAGGCGAGGAGU [JL-ss1-3.17 ViennaUCT mod] (puzzle: Same State 1)	297	98.8	265	–	–	–
GUUAUUUAUGCAGGAUAUGAUUAACAUGAGGAUCACCCAUGUGGUGUUGUGAGUAAGGAGAGUGAUCAGAAGGGCAUUUUUUUU [JMF's solution 77] (Eterna round: R96, puzzle: Same State NG 2)	–	–	–	626	298	565
GUUCGGAAUCGAGCUGACAUGAGGAUCACCCAUGUUAGUGGGAAGGAUAUGGUACAGAAACUGUACCAGAAGGUCUUACUGUCU (Eterna round: R96, puzzle: Same State NG 3)	–	–	–	47	66.7	67.4
